T1: Human IL-23 (human, UniProt Q9NPF7 20-189; P29460 23-328)
T1 sequence (looked up) 1: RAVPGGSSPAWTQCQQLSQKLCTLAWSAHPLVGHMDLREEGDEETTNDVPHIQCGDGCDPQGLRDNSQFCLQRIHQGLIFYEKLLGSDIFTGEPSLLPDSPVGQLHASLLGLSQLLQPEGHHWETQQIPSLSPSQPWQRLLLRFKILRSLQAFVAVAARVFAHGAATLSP
T1 sequence (looked up) 2: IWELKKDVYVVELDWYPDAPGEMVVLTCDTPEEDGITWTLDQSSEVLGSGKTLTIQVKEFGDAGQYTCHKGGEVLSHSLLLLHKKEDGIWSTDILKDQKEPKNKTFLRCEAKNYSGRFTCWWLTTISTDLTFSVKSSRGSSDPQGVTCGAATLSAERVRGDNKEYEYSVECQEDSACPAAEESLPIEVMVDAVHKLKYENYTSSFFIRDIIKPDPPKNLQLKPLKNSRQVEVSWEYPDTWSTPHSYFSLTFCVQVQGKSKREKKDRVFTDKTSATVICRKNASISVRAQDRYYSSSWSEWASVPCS


Experiments:
Human IL-23 [1] = biological target: T1, Human IL-23; test: cell-based or functional assay
Human IL-23 [2] = biological target: T1, Human IL-23; test: SPR (Biacore T100), Adnectin captured by anti-His mAb, IL-23 injected, 25 C
Experimental: The anti-His antibody, mAb050 (RnD Systems, MN) was diluted to 20 μg/mL in acetate, pH 5.0 and immobilized to ˜9000 RU on flow cells 1 and 2 of a CM5 chip surface (GE Healthcare, Piscataway, N.J.) according to the manufacturer's instructions. All surface plasmon experiments were conducted in HBS-EP (10 mM Hepes 150 mM NaCl 3 mM EDTA 0.05% Surfactant P20) at 25° C. IL-23 was injected over anti-His mAb captured Adnectins for 2 minutes followed by a 10 minute dissociation phase. Kinetic parameters were calculated using the T100. Biaevaluation.

Human IL-23 [3] = biological target: T1, Human IL-23; test: competitive ELISA: Adnectin pre-incubated with 1 nM IL-23, binding to coated IL-23R-Fc
Experimental: (§1) Adnectin variants were tested by ELISA for their ability to bind IL-23 in a manner that was competitive with the binding site of the native IL-23 receptor (IL-23R). Recombinant human IL-23R-Fc (R&D Systems, Minneapolis, Minn.) was coated overnight at 4° C. on a NUNC® Maxisorp plate (Thermo Fisher Scientific, Denmark) with 50 μL at 4 μg/mL in PBS. All washing was performed with PBST (PBS with 0.05% (w/v) Tween) using an automated plate washer (Biotek, Vt.). OptEIA buffer (BD Bioscience, CA) was used as block and assay diluent. Adnectin dilutions ranging from 200 nM to 28 pM were pre-incubated with 1 nM IL-23 for an hour before transferring to blocked IL-23R-Fc coated plates for 30 minutes. Bound IL-23 was detected via anti-IL-23 (GeneTex, CA) and anti-mouse-HRP (R&D Systems, MN) followed by TMB (3,3′,5,5′-tetramethylbenzidine) (BD Bioscience, CA) addition. Typical development time was 10 minutes. […] IC50s were generated from the average of four runs with an in-house curve fitting application.

Human IL-23 [4] = biological target: T1, Human IL-23; test: competitive ELISA, ratio of IC50 against parent 1454B08
Experimental: as §1

Binder | pSTAT3 IC50 (nM) (Human IL-23 [1]) | Kd (Human IL-23 [2]) [nM] | koff (Human IL-23 [2]) [s⁻¹] | kon (Human IL-23 [2]) [M⁻¹ s⁻¹] | IC50 (Human IL-23 [3]) [nM] | Activity (parent/mutant) (Human IL-23 [4])
Anti-IL-23 Adnectin 1866C02 (designed binder) MGVSDVPRDLEVVAATPTSLLISWDHNYTWYRYYRITYGETGGNSPVQEFTVPRGVDTATISGLKPGVDYTITVYAVTSSYKYDIQYPPISINYRTEIDKPSQHHHHHH | 0.03 |  |  |  |  | 
Anti-IL-23 Adnectin 1454B08 (designed binder, 10Fn3-based Adnectin expressed in E. coli followed by a HIS6 tag; Fn3 domain is positions 3-96 of the entry; also called Parent) MGVSDVPRDLEVVAATPTSLLISWEHDYPYRRYYRITYGETGGNSPVQEFTVPKDVDTATISGLKPGVDYTITVYAVTSSYKYDMQYSPISINYRTEIDKPSQHHHHHH | 0.3 | 3.72 | 0.000409 | 110000 | 1 | 1
Anti-IL-23 Adnectin 1866D11 (designed binder) MGVSDVPRDLEVVAATPTSLLISWDHDYPYRRYYRITYGETGGNSPVQEFTVPKDVDTATISGLKPGVDYTITVYAVTSSYKYDIQYPPISINYRTEIDKPSQHHHHHH | 0.03 |  |  |  |  | 
Anti-IL-23 Adnectin 1241A05 (designed binder, 10Fn3-based Adnectin expressed in E. coli followed by a HIS6 tag; Fn3 domain is positions 3-96 of the entry; also called Clone 1241A05) MGVSDVPRDLEVVAATPTSLLISWNHNYSYYRYYRITYGETGGNSPVQEFTVPRGVATATISGLKPGVDYTITVYAVTSSYKYDMQYSPISINYRTEIDKPSQHHHHHH | 30.7 | 32.6 | 0.000236 | 7280 |  | 

More lines, now with the values ahead:

pSTAT3 IC50 (nM) (Human IL-23 [1]) | Kd (Human IL-23 [2]) [nM] | koff (Human IL-23 [2]) [s⁻¹] | kon (Human IL-23 [2]) [M⁻¹ s⁻¹] | IC50 (Human IL-23 [3]) [nM] | Activity (parent/mutant) (Human IL-23 [4]) | Binder
0.45 | 2.8 | 0.000227 | 81000 |  |  | Anti-IL-23 Adnectin 1454H11 (designed binder, 10Fn3-based Adnectin expressed in E. coli followed by a HIS6 tag; Fn3 domain is positions 3-96 of the entry) MGVSDVPRDLEVVAATPTSLLISWEHDYPYRRYYRITYGETGGNSPVQEFTVPREDSTATISGLKPGVDYTITVYAVTSSYKYDMQYSPISINYRTEIDKPSQHHHHHH
0.48 | 9.57 | 0.000438 | 45700 |  |  | Anti-IL-23 Adnectin 1454D02 (designed binder, 10Fn3-based Adnectin expressed in E. coli followed by a HIS6 tag (captured by anti-His mAb in SPR)) MGVSDVPRDLEVVAATPTSLLISWDHDYPYRRYYRITYGETGGNSPVQEFTVPRNINTATISGLKPGVDYTITVYAVTSSYKYDMQYSPISINYRTEIDKPSQHHHHHH
0.44 | 3.91 | 0.000468 | 120000 |  |  | Anti-IL-23 Adnectin 1454C03 (designed binder, 10Fn3-based Adnectin expressed in E. coli followed by a HIS6 tag; Fn3 domain is positions 3-96 of the entry) MGVSDVPRDLEVVAATPTSLLISWDMYYPYSRYYRITYGETGGNSPVQEFTVPKEYDTATISGLKPGVDYTITVYAVTSSYKYDMQYSPISINYRTEIDKPSQHHHHHH

Reference: patent US20130288372A1 (Bristol-Myers Squibb, published 2013)
